Patent US20040005691
“And” between values parts separate entries of the source, which are not always exact repeats. Equal values may be shown once.

Target: T1, substrate S-1 (SEISY-EVEFRWKK)
T1 chain: SEISYEVEFRWKK

B1: P33K-BACE expressed in E. coli from the pET11a-P33K-BACE construct (protein)
chain: MASMTGGQQMGRGSMAGVLPAHGTQHGIRLPLRSGLGGAPLGLRLPRETDEEPEEKGRRGSFVEMVDNLRGKSGQGYYVEMTVGSPPQTLNILVDTGSSNFAVGAAPHPFLHRYYQRQLSSTYRDLRKGVYVPYTQGKWEGELGTDLVSIPHGPNVTVRANIAAITESDKFFINGSNWEGILGLAYAEIARPDDSLEPFFDSLVKQTHVPNLFSLQLCGAGFPLNQSEVLASVGGSMIIGGIDHSLYTGSLWYTPIRREWYYEVIIVRVEINGQDLKMDCKEYNYDKSIVDSGTTNLRLPKKVFEAAVKSIKAASSTEKFPDGFWLGEQLVCWQAGTTPWNIFPVISLYLMGEVTNQSFRITILPQQYLRPVEDVATSQDDCYKFAISQSSTGTVMGAVIMEGFYVVFDRARKRIGFAVSACHVHDEFRTAAVEGPFVTLDMEDCGYNIPQTDES
  Activity Assays (Fluorescence Peak Area) (fluorescence peak area): 38.4 and 26.5 and 32.8
  enzyme activity compared with BACE: the P33K-BACE has essentially the same activity of BACE

B2: human BACE expressed in E. coli from pET11a-BACE, without the P33K mutation (protein)
chain: MASMTGGQQMGRGSMAGVLPAHGTQHGIRLPLRSGLGGAPLGLRLPRETDEEPEEPGRRGSFVEMVDNLRGKSGQGYYVEMTVGSPPQTLNILVDTGSSNFAVGAAPHPFLHRYYQRQLSSTYRDLRKGVYVPYTQGKWEGELGTDLVSIPHGPNVTVRANIAAITESDKFFINGSNWEGILGLAYAEIARPDDSLEPFFDSLVKQTHVPNLFSLQLCGAGFPLNQSEVLASVGGSMIIGGIDHSLYTGSLWYTPIRREWYYEVIIVRVEINGQDLKMDCKEYNYDKSIVDSGTTNLRLPKKVFEAAVKSIKAASSTEKFPDGFWLGEQLVCWQAGTTPWNIFPVISLYLMGEVTNQSFRITILPQQYLRPVEDVATSQDDCYKFAISQSSTGTVMGAVIMEGFYVVFDRARKRIGFAVSACHVHDEFRTAAVEGPFVTLDMEDCGYNIPQTDES
  Activity Assays (Fluorescence Peak Area) (fluorescence peak area): 31 and 45.8 and 31.9

B3: BACE construct Asp2-2L-TM-His6 expressed in CHO cells (protein)
chain: TQHGIRLPLRSGLGGAPLGLRLPRETDEEPEEPGRRGSFVEMVDNLRGKSGQGYYVEMTVGSPPQTLNILVDTGSSNFAVGAAPHPFLHRYYQRQLSSTYRDLRKGVYVPYTQGKWEGELGTDLVSIPHGPNVTVRANIAAITESDKFFINGSNWEGILGLAYAEIARPDDSLEPFFDSLVKQTHVPNLFSLQLCGAGFPLNQSEVLASVGGSMIIGGIDHSLYTGSLWYTPIRREWYYEVIIVRVEINGQDLKMDCKEYNYDKSIVDSGTTNLRLPKKVFEAAVKSIKAASSTEKFPDGFWLGEQLVCWQAGTTPWNIFPVISLYLMGEVTNQSFRITILPQQYLRPVEDVATSQDDCYKFAISQSSTGTVMGAVIMEGFYVVFDRARKRIGFAVSACHVHDEFRTAAVEGPFVTLDMEDCGYNIPQTDESHHHHHH
  Activity Assays (Fluorescence Peak Area) (fluorescence peak area): 83.3 and 85.2 and 78.1
